The target in data set [1] is T1, PyaGRHPR (Pyrococcus yayanosii, UniProt F8AEA4).
T1 construct: gene gyaR; synthetic codon-optimised gene in pET41c, E. coli BL21(DE3)-RIL; no tag mentioned; heat step 85 °C, Resource Q, Superose 12; 66 kDa homodimer
T1 sequence (F8AEA4 1-333): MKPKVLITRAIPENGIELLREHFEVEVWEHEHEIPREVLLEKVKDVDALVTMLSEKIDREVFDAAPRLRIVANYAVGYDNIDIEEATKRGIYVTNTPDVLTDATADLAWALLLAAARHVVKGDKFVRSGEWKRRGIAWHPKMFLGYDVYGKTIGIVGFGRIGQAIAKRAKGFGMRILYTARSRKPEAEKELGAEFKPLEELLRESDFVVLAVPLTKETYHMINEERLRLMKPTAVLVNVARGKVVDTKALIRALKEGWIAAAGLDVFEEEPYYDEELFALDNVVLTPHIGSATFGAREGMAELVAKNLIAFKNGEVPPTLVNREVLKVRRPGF
The data set is described as follows: NAD(P)H absorbance at […] nm. The data set is classed as biochemical. As to conditions: co-substrate hydroxypyruvate or glyoxylate, Tris-HCl 100 mM pH 8.0, 50 °C.

Data set [2] deals with T2, PfuGRHPR (Pyrococcus furiosus, UniProt Q8U3Y2).
T2 construct: gene gyaR; synthetic codon-optimised gene in pET41c, E. coli BL21(DE3)-RIL; no tag mentioned; heat step 85 °C, Resource Q, Superose 12; 66 kDa homodimer
T2 sequence (Q8U3Y2 1-336): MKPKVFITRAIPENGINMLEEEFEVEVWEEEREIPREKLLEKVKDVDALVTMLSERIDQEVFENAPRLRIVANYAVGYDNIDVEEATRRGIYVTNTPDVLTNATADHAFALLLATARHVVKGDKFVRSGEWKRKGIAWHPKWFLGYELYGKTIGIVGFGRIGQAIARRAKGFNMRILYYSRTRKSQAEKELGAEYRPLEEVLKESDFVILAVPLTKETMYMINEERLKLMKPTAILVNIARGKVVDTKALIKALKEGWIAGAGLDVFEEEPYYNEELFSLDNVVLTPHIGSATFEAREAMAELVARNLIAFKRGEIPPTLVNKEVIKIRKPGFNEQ
Briefly: NAD(P)H absorbance at […] nm. The data set is classed as biochemical. To be noted: co-substrate hydroxypyruvate or glyoxylate, Tris-HCl 100 mM pH 8.0, 50 °C.

In data set [3] the target is T2, PfuGRHPR. Briefly: NAD(P)H absorbance at […] nm, substrate inhibition fit. To be noted: NADH 0.5 mM, Tris-HCl 100 mM pH 8.0, 50 °C. It is filed as biochemical.
The target in data set [4] is T1, PyaGRHPR. The data set is described as above. It is filed as biochemical. To be noted: NADH 0.5 mM, Tris-HCl 100 mM pH 8.0, 50 °C.
In another data set the target is T3, PhoGRHPR (Pyrococcus horikoshii, UniProt O58320).
T3 construct: gene gyaR; synthetic codon-optimised gene in pET41c, E. coli BL21(DE3)-RIL; no tag mentioned; heat step 85 °C, Resource Q, Superose 12; 66 kDa homodimer
T3 sequence (O58320 1-334): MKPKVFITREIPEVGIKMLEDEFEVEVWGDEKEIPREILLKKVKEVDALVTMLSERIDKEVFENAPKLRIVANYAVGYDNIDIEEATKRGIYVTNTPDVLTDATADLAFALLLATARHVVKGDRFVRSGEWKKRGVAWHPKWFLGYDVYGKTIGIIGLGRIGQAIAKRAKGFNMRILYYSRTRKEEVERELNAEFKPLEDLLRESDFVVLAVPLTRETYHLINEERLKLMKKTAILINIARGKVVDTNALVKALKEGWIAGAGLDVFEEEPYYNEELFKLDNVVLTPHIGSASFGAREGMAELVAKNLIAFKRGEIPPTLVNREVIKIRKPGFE
Described as above. It is filed as biochemical. As to conditions: NADH 0.5 mM, Tris-HCl 100 mM pH 8.0, 50 °C.

Data set [5] deals with T1, PyaGRHPR. Briefly: crystal structure […] Å. It is filed as binding. To be noted: copurified.
For data set [6], the target named is T2, PfuGRHPR. The data set is described as follows: crystal structure […] Å. The data set is classed as binding.
Substrate in data set [7]: O=C(O)C(=O)CO
The data set is described as follows: purified protein. The data set is classed as biochemical, Pyrococcus yayanosii. To be noted: NADH 0.5 mM, Tris-HCl 100 mM pH 8.0, 50 °C.

Substrate in data set [8]: O=CC(=O)O
Briefly: purified protein. The data set is classed as biochemical, Pyrococcus yayanosii. As to conditions: NADH 0.5 mM, Tris-HCl 100 mM pH 8.0, 50 °C.

Substrate in data set [9]: O=C(O)C(=O)CO
The data set is described as follows: purified protein. The data set is classed as biochemical, Pyrococcus horikoshii. To be noted: NADH 0.5 mM, Tris-HCl 100 mM pH 8.0, 50 °C.

Substrate in data set [10]: O=CC(=O)O
Briefly: purified protein. The data set is classed as biochemical, Pyrococcus horikoshii. As to conditions: NADH 0.5 mM, Tris-HCl 100 mM pH 8.0, 50 °C.

Substrate in data set [11]: O=C(O)C(=O)CO
Briefly: purified protein. It is filed as biochemical, Pyrococcus furiosus. As to conditions: NADH 0.5 mM, Tris-HCl 100 mM pH 8.0, 50 °C.

Substrate in data set [12]: O=CC(=O)O
Briefly: purified protein. It is filed as biochemical, Pyrococcus furiosus. To be noted: NADH 0.5 mM, Tris-HCl 100 mM pH 8.0, 50 °C.

On to `NC(=O)C1=CN([C@@H]2O[C@H](COP(=O)(O)OP(=O)(O)OC[C@H]3O[C@@H](n4cnc5c(N)ncnc54)[C@H](O)[C@@H]3O)[C@@H](O)[C@H]2O)C=CC1` [NADH], for which the KM entry on PyaGRHPR [1] and at PfuGRHPR [2] was “Archaeal GRHPR presents higher affinity for NADPH compared to NADH” throughout.

As to `O=C(O)C(=O)CO` [hydroxypyruvate], the “PfuGRHPR / NADH” value at PfuGRHPR [3] stood at 350 ± 140 µM. Also, the “PyaGRHPR / NADH” value on PyaGRHPR [4] was 760 ± 200 µM. Also, the “PhoGRHPR / NADH” value on PhoGRHPR amounted to 3820 ± 680 µM.

On to `O=C(O)[C@H](O)CO` [D-glycerate], for which the “crystal structure 2.0 Å” value on PyaGRHPR [5] (ternary complex with NADP(H), active site, density did not distinguish D-glycerate from hydroxypyruvate) is recorded as “The PyaGRHPR structure contains D-glycerate, product of HPR activity”.

`NC(=O)C1=CN([C@@H]2O[C@H](COP(=O)(O)OP(=O)(O)OC[C@H]3O[C@@H](n4cnc5c(N)ncnc54)[C@H](OP(=O)(O)O)[C@@H]3O)[C@@H](O)[C@H]2O)C=CC1` [NADPH]: the “crystal structure 2.0 Å” value at PyaGRHPR [5] (ternary complex with D-glycerate, modelled as NADP(H), oxidation state not resolved) was “Both structures include a cofactor molecule, unambiguously modeled as NADP(H)”. In addition, the “crystal structure 1.40 Å” value on PfuGRHPR [6] (ternary complex with glyoxylate, copurified, modelled as NADP(H), oxidation state not resolved) is “Both structures include a cofactor molecule, unambiguously modeled as NADP(H)”. Besides, the KM entry at PyaGRHPR [1] and on PfuGRHPR [2] was “Archaeal GRHPR presents higher affinity for NADPH compared to NADH” throughout.

`O=CC(=O)O` [glyoxylate]: the “crystal structure 1.40 Å” value at PfuGRHPR [6] (ternary complex with NADP(H), ligand carried over from E. coli, active site, further molecule in tunnel) is recorded as “the determination of the PfuGRHPR structure reveals a ternary complex in the presence of glyoxylate”.

B1: PyaGRHPR (Pyrococcus yayanosii CH1) (protein)
chain: MKPKVLITRAIPENGIELLREHFEVEVWEHEHEIPREVLLEKVKDVDALVTMLSEKIDREVFDAAPRLRIVANYAVGYDNIDIEEATKRGIYVTNTPDVLTDATADLAWALLLAAARHVVKGDKFVRSGEWKRRGIAWHPKMFLGYDVYGKTIGIVGFGRIGQAIAKRAKGFGMRILYTARSRKPEAEKELGAEFKPLEELLRESDFVVLAVPLTKETYHMINEERLRLMKPTAVLVNVARGKVVDTKALIRALKEGWIAAAGLDVFEEEPYYDEELFALDNVVLTPHIGSATFGAREGMAELVAKNLIAFKNGEVPPTLVNREVLKVRRPGF
notes: synthetic codon-optimised gene in pET41c, E. coli BL21(DE3)-RIL; no tag mentioned; heat step 85 °C, Resource Q, Superose 12; 66 kDa homodimer
In the case of B1, in the data set “purified protein [7]”, the Michaelis-Menten constant (Km) is 410 ± 110 µM, the kcat amounted to 25 ± 5 s⁻¹ and the kcat/Km came out at 60000 ± 25000 M⁻¹ s⁻¹. Further, in “purified protein [8]”, the Km was 1500 ± 140 µM, the kcat stood at 4.8 ± 0.2 s⁻¹ and the kcat/Km was determined as 3000 ± 500 M⁻¹ s⁻¹.

B2: PhoGRHPR (Pyrococcus horikoshii OT3) (protein)
chain: MKPKVFITREIPEVGIKMLEDEFEVEVWGDEKEIPREILLKKVKEVDALVTMLSERIDKEVFENAPKLRIVANYAVGYDNIDIEEATKRGIYVTNTPDVLTDATADLAFALLLATARHVVKGDRFVRSGEWKKRGVAWHPKWFLGYDVYGKTIGIIGLGRIGQAIAKRAKGFNMRILYYSRTRKEEVERELNAEFKPLEDLLRESDFVVLAVPLTRETYHLINEERLKLMKKTAILINIARGKVVDTNALVKALKEGWIAGAGLDVFEEEPYYNEELFKLDNVVLTPHIGSASFGAREGMAELVAKNLIAFKRGEIPPTLVNREVIKIRKPGFE
notes: as for B1
For the molecule B2, in the data set “purified protein [9]”, the Km worked out at 70 ± 11 µM, the kcat was found to be 4.5 ± 0.5 s⁻¹ and the kcat/Km is 65000 ± 20000 M⁻¹ s⁻¹. For the same molecule, in the data set “purified protein [10]”, the Km is 160 ± 25 µM, the kcat worked out at 4 ± 0.5 s⁻¹ and the kcat/Km was 25000 ± 5000 M⁻¹ s⁻¹.

B3: PfuGRHPR (Pyrococcus furiosus DSM 3638) (protein)
chain: MKPKVFITRAIPENGINMLEEEFEVEVWEEEREIPREKLLEKVKDVDALVTMLSERIDQEVFENAPRLRIVANYAVGYDNIDVEEATRRGIYVTNTPDVLTNATADHAFALLLATARHVVKGDKFVRSGEWKRKGIAWHPKWFLGYELYGKTIGIVGFGRIGQAIARRAKGFNMRILYYSRTRKSQAEKELGAEYRPLEEVLKESDFVILAVPLTKETMYMINEERLKLMKPTAILVNIARGKVVDTKALIKALKEGWIAGAGLDVFEEEPYYNEELFSLDNVVLTPHIGSATFEAREAMAELVARNLIAFKRGEIPPTLVNKEVIKIRKPGFNEQ
notes: as for B1
Turning to B3, in the data set “purified protein [11]”, the Km is 140 ± 55 µM, the kcat stood at 10 ± 5 s⁻¹ and the kcat/Km is 75000 ± 50000 M⁻¹ s⁻¹. In the data set “purified protein [12]”, the Km worked out at 1800 ± 25 µM, the kcat was 13 ± 0.5 s⁻¹ and the kcat/Km amounted to 7000 ± 500 M⁻¹ s⁻¹.

(Values after PMC4749974, “New insights into the mechanism of substrates trafficking in Glyoxylate/Hydroxypyruvate reductases” (Scientific Reports, 2016).)
